According to patent US20240287484:

How the values were obtained:
Conditions in all cases: qPCR; 3 mM MgCl2, 37 C
[1] = system: T1, MG153-25 RT (uncultivated organism (metagenomic))
T1 sequence: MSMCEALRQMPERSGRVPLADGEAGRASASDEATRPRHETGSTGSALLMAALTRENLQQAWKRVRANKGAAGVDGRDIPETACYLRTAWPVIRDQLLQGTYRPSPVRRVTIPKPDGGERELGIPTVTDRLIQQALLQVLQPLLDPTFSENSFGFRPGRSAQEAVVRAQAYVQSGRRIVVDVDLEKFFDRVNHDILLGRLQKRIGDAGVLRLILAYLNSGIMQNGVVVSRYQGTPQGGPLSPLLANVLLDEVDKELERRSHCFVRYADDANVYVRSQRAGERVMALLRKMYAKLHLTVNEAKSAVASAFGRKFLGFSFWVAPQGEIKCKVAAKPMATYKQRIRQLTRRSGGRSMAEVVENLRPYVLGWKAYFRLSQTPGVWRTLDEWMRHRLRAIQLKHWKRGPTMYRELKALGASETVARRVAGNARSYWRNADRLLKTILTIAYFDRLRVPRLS

[2] = system: T2, MG153-28 RT (uncultivated organism (metagenomic))
T2 sequence: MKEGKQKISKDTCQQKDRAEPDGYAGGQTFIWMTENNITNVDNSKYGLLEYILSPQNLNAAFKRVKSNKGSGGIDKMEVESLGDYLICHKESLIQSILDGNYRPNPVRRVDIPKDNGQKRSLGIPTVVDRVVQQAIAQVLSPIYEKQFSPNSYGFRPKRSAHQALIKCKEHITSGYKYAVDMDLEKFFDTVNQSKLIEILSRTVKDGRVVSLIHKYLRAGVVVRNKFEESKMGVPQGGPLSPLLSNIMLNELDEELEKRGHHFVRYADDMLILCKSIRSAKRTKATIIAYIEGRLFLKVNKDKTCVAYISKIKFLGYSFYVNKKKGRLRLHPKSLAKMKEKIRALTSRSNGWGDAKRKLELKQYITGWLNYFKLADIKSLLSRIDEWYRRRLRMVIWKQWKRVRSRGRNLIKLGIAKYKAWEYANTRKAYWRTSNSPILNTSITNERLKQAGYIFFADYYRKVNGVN

[3] = system: T3, MG153-55 RT (uncultivated organism (metagenomic))
T3 sequence: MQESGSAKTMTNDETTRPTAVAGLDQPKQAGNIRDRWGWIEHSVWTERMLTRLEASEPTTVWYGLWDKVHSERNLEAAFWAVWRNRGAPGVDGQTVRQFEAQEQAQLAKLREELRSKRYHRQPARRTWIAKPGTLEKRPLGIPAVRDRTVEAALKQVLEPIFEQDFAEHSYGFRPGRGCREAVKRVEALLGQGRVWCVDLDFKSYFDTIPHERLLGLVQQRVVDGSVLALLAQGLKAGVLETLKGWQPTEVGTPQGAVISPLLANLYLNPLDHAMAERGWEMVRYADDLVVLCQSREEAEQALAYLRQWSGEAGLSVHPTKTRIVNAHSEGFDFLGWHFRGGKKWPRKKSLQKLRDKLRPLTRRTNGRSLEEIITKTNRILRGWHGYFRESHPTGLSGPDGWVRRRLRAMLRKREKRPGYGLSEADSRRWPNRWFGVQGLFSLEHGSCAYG

[4] = system: T4, MG153-56 RT (uncultivated organism (metagenomic))
T4 sequence: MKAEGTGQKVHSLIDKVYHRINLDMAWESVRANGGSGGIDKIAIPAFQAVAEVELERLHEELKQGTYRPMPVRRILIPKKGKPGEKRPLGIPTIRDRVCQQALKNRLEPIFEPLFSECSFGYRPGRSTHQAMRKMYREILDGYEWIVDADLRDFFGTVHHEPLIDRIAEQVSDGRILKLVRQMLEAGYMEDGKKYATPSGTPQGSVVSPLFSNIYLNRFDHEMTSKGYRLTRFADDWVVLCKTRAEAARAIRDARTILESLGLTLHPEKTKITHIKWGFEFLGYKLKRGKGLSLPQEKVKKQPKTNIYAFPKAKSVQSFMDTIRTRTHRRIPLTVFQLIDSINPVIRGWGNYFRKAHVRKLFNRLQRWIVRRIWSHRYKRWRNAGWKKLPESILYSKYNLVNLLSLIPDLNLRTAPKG

[5] = system: T5, MG153-7 RT (uncultivated organism (metagenomic))
T5 sequence: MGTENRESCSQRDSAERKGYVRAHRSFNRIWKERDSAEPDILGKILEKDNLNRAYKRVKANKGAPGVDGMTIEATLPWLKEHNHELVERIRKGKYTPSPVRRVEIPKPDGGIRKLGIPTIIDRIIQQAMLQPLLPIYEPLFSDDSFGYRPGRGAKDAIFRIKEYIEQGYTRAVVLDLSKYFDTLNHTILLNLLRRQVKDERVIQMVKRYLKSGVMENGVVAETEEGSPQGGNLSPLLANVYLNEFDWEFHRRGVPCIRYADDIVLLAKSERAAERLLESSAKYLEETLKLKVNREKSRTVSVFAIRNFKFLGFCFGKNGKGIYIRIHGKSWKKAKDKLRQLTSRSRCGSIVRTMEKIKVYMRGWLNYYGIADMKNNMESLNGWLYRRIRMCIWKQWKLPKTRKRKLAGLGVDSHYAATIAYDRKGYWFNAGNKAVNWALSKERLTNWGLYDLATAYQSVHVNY

[6] = system: T6, MG167-3 RT (uncultivated organism (metagenomic))
T6 sequence: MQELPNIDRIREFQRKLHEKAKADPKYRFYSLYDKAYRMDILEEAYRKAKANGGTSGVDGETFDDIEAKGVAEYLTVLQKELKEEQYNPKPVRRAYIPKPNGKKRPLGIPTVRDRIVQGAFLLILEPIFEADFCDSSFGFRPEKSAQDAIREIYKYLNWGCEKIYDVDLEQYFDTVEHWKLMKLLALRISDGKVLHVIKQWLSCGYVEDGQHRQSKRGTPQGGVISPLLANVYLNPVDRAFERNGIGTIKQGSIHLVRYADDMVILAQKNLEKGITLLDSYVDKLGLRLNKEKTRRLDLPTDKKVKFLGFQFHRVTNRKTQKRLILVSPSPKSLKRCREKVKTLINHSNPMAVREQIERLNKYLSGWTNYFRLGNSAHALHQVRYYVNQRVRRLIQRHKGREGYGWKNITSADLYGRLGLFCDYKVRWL

[7] = system: MG167-5 RT (uncultivated organism (metagenomic))
MG167-5 RT (uncultivated organism (metagenomic)), sequence (chain, as listed by the source): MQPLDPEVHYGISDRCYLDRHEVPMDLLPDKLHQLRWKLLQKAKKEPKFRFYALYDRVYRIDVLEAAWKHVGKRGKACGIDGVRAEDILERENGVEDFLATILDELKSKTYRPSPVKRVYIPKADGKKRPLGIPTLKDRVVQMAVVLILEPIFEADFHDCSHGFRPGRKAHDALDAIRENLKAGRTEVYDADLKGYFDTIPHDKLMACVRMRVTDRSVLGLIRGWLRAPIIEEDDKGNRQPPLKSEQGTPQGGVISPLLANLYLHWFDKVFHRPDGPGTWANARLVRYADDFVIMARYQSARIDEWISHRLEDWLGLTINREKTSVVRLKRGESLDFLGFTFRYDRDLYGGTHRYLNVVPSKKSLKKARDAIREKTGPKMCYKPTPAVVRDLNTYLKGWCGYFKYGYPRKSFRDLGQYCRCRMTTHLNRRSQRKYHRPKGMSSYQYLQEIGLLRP

Measured: activity (fold over background)

200 nt RNA template annealed to DNA primer
> 10: all assays above
